The numbers were not newly measured in paper PMC8671138, which cites them from elsewhere.

In the series the target is CD47 (Homo sapiens) (UniProt Q08722).
Chain of UniProt Q08722 (Q08722 19-323): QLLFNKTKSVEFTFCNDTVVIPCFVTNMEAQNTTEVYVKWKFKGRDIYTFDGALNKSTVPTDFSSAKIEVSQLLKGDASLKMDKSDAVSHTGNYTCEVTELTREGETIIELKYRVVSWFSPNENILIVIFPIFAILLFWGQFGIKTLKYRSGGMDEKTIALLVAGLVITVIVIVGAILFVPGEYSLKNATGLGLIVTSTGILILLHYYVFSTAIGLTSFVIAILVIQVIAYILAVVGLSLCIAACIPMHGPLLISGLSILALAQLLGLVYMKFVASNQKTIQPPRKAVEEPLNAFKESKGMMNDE

On to SIRPα (from UniProt P78324), for which the Kd (in general, the free concentration of one partner at which half of the binding sites on the other are occupied at equilibrium, for simple one-to-one binding) was 2000 nM.
